This is an account of results in paper doi:10.1101/2025.08.31.673340, “Structural and dynamic basis of indirect apoptosis inhibition by Bcl-xL: a case study with Bid” (bioRxiv, 2025).

Numbering of substitutions follows the chain as printed.

For assay [1], the target named is T1, human Bcl-xL, full length, wild type (human, UniProt Q07817-1 1-233).
T1 construct: human Bcl-xL, full length with the C-terminal hydrophobic helix α9; also called Bcl-xL wt; unlabeled wild type Bcl-xL; source: E. coli, purified from the soluble fraction (chitin resin, anion exchange, Superdex 200)
Briefly: HDX-MS; conditions Bcl-xL; Bcl-xL + LUVs; Bcl-xL + LUVs + cBid; cBid; proteins (340 pmol) pre-incubated with LUVs 1 h at 37 °C, centrifuged at 20'000 x g, the pellet used for deuterium labelling. Conditions: both partners purified.

Assay [2] deals with T1, human Bcl-xL, full length, wild type. Briefly: co-sedimentation; spin-labeled protein incubated with LUVs alone or with the unlabeled partner; supernatant and pellet fractions quantified by room temperature continuous wave EPR (spin counting). Conditions: both partners purified.

T1 sequence (Q07817 whole entry): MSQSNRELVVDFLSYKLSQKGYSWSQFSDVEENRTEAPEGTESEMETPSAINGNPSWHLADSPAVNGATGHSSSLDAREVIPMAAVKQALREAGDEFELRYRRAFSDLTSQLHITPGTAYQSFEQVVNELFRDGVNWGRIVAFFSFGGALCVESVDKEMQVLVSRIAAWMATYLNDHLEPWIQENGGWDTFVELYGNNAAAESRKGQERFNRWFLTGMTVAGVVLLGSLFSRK

B1: cBid (mouse Bid cleaved by Caspase 8), wild type (complex)
chain 1: MDSEVSNGSGLGAEHITDLLVFGFLQSSGCTRQELEVLGRELPVQAYWEADLEDELQTD
chain 2: GSQASRSFNQGRIEPDSESQEEIIHNIARHLAQIGDEMDHNIQPTLVRQLAAQFMNGSLSEEDKRNCLAKALDEVKTAFPRDMENDKAMLIMTMLLAKKVASHAPSLLRDVFHTTVNFINQNLFSYVRNLVRNEMD
notes: also called cBid wt; cBidWT; source: E. coli, purified from the soluble fraction (Ni-NTA), cleaved with Caspase 8, purified again with Ni-NTA; not shown: His tag (on Bid before cleavage)
As to B1, the binding result in assay [1] is recorded as “binds”.

B2: cBid spin-labeled at the natural cysteine 126 (complex, mouse)
chain 1: B1 chain 1 with C30S
chain 2: B1 chain 2
modifications: MTSL spin label on cysteine 126
notes: p7 fragment of mouse Bid; natural cysteine C30 replaced by serine (singly labeled variant); tBid fragment of mouse Bid with its natural cysteine C126; source: E. coli, purified (Ni-NTA), cleaved with Caspase 8, purified again with Ni-NTA, spin-labeled with MTSL; not shown: His tag (on Bid before cleavage)
Consider B2, for which, in assay [2], the binding result is recorded as “binds”.
